Experimental data published in patent US20240376208A1 (AFFIMED, published 2024).
Where two headings read alike, the source gives them in different places.

Assays:
[1] = target: T1, EGFR on tumor target cells (MCF-7, Daudi, DK-MG, HCT-116) (UniProt P00533 25-1210, limits assumed); assay: cell-based or functional assay
[2] = target: T1, EGFR on tumor target cells (MCF-7, …); assay: cell-based or functional assay; remark: listed apart in the source
[3] = target: T1, EGFR on tumor target cells (MCF-7, …); assay: cell-based or functional assay; remark: listed apart in the source
[4] = target: CD16A on primary human NK cells (human, UniProt P08637 17-254); assay: cell-based or functional assay
Chain of CD16A on primary human NK cells (P08637 17-254 limits assumed): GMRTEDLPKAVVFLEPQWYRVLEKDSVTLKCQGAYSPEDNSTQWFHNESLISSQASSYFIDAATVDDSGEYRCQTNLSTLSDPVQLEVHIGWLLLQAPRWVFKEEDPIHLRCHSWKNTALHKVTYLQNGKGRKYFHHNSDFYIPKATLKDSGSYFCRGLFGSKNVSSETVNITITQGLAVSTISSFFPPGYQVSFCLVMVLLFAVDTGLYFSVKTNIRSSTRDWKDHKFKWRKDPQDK

[5] = target: T2, biotinylated dimeric CD16A antigen (human, UniProt P08637 17-208, limits assumed, biotinylated (site not stated)); assay: ELISA, biotinylated dimeric CD16A titrated on coated construct
T2 construct: Soluble antigen; also called soluble CD16A antigen
T2 sequence (P08637 17-208 limits assumed): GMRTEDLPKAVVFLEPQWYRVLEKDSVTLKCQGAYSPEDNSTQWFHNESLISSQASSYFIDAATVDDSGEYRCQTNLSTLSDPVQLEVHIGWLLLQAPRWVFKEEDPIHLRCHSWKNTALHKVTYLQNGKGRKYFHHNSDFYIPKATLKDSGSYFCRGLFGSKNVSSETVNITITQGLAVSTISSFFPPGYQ
Procedure: (§1) For the capturing approach, 96-well ELISA plates (Immuno Maxisorp, Nunc) were coated overnight at 4° C. with His-tagged human EGFR or BCMA extracellular domain at concentrations of 3.0 or 0.4 μg/mL, respectively. After blocking with 3% (w/v) skimmed milk powder dissolved in phosphate buffered saline (PBS), antigen coated plates were used for capturing of different multivalent bispecific engagers at concentrations of 3-5 μg/mL in PBS containing 0.3% (w/v) skimmed milk powder. After washing three times with 300 μL per well of PBS containing 0.1% (v/v) Tween 20, plates were incubated with serial dilutions of biotinylated dimeric or monomeric CD16A antigen in PBS containing 0.3% (w/v) skimmed milk powder for 1.5 h at room temperature. After washing, plates were incubated with the detection conjugate Streptavidin HRP, 1:10,000 diluted in PBS containing 0.3% (w/v) skimmed milk powder for 1 h followed by washing and incubation with tetramethylbenzidine substrate (Seramun) for 1-2 min. Reaction was stopped by addition of 0.5 M H₂SO₄ (100 μL/well). Absorbance was measured at 450 nm using a multiwell plate reader, plotted and EC₅₀ values were determined by fitting a nonlinear regression model to sigmoidal dose-response curves (four parameters logistic fit) using GraphPad Prism software.
(§2) Concentration dependent binding of antibody constructs to coated recombinant CD16A antigen, or of soluble monomeric or dimeric CD16 antigen variants to coated or target antigen captured antibody constructs was analyzed in ELISA. Half maximal binding concentrations (EC₅₀) were determined by fitting a nonlinear regression model to sigmoidal dose-response curves (four parameters logistic fit) using GraphPad Prism software.

[6] = target: T3, biotinylated monomeric CD16A antigen (human, UniProt P08637 17-208, limits assumed, biotinylated (site not stated)); assay: ELISA, biotinylated monomeric CD16A titrated on coated construct
T3 construct: Soluble antigen; also called soluble CD16A antigen
T3 sequence (P08637 17-208 limits assumed): as above
Procedure: as §1, §2

[7] = target: T4, recombinant CD16A 158F fused to monomeric human Fc (human, UniProt P08637 17-208); assay: ELISA, construct titrated on coated CD16A 158F fused to monomeric human Fc
T4 construct: also called recombinant CD16 antigen variant; not shown: monomeric human Fc
T4 sequence (P08637 17-208): as the sequence (P08637 17-208 limits assumed) above
Procedure: To assess binding of EGFR/CD16 or BCMA/CD16 antibodies to coated antigen in ELISA, 96-well ELISA plates (Immuno Maxisorp, Nunc) were coated overnight at 4° C. with recombinant CD16 antigen variants fused to monomeric human Fc at a concentration of 1.5 μg/mL in 100 mM carbonate-bicarbonate buffer. After blocking with 3% (w/v) skimmed milk powder dissolved in phosphate buffered saline (PBS) serial dilutions of bispecific antibody constructs were incubated on the antigen coated plates for 1.5 h at room temperature. […] After washing, plates were incubated with tetramethylbenzidine substrate (Seramun) for 1-2 min. Reaction was stopped by addition of 0.5 M H₂SO₄ (100 μL/well). Absorbance was measured at 450 nm using a multiwell plate reader, plotted and EC₅₀ values were determined by fitting a nonlinear regression model to sigmoidal dose-response curves (four parameters logistic fit) using GraphPad Prism software.
as §2

[8] = target: T3, biotinylated monomeric CD16A antigen; assay: ELISA, biotinylated monomeric CD16A titrated on construct captured by coated His-tagged human EGFR extracellular domain
Procedure: as §1, §2

[9] = target: T2, biotinylated dimeric CD16A antigen; assay: ELISA, biotinylated dimeric CD16A titrated on construct captured by coated His-tagged human EGFR extracellular domain
Procedure: as §1, §2

[10] = target: recombinant CD16A 158V fused to monomeric human Fc (human, UniProt P08637 17-208); assay: ELISA, construct titrated on coated CD16A 158V fused to monomeric human Fc
Chain of recombinant CD16A 158V fused to monomeric human Fc (P08637 17-208 F176V): as the sequence (P08637 17-208 limits assumed) above, with F160V counted along it

EC50 [5]	EC50 [6]	EC50 [7]	EC50 [8]	EC50 [9]	EC50 [10]	Binder	Emax [%], 4 h calcein-release cytotoxicity on Daudi target cells, NK cells E:T 5:1 [1]	EC50 [pM], 4 h calcein-release cytotoxicity on Daudi target cells, NK cells E:T 5:1 [2]	Emax [%], 4 h calcein-release cytotoxicity on Daudi target cells, NK cells E:T 5:1 [2]	EC50 [pM], 4 h calcein-release cytotoxicity on MCF-7 target cells, NK cells E:T 5:1 [3]	Emax [%], 4 h calcein-release cytotoxicity on MCF-7 target cells, NK cells E:T 5:1 [3]	EC50 [pM], 4 h calcein-release NK cell fratricide assay, E:T 1:1 [4]	Emax [%], 4 h calcein-release NK cell fratricide assay, E:T 1:1 [4]
–	–	–	–	–	–	scFv-IgAb_43 (bispecific antibody) heavy: QVQLQESGPGLVKPSETLSLTCTVSGGSVSSGSYYWSWIRQPPGKGLEWIGYIYYSGSTNYNPSLKSRVTISVDTSKNQFSLKLSSVTAADTAVYYCARNPISIPAFDIWGQGTMVTVSSASTKGPSVFPLAPSSKSTSGGTAALGCLVKDYFPEPVTVSWNSGALTSGVHTFPAVLQSSGLYSLSSVVTVPSSSLGTQTYICNVNHKPSNTKVDKKVEPKSCDKTHTCPPCPAPEFEGGPSVFLFPPKPKDTLMISRTPEVTCVVVAVSHEDPEVKFNWYVDGVEVHNAKTKPREEQYNSTYRVVSVLTVLHQDWLNGKEYKCKVSNKALPAPIEKTISKAKGQPREPQVYTLPPSREEMTKNQVSLTCLVKGFYPSDIAVEWESNGQPENNYKTTPPVLDSDGSFFLYSKLTVDKSRWQQGNVFSCSVMHEALHNHYTQKSLSLSPGGGGGSGGGGSGGGGSGGGGSGGGGSGGGGSSYVLTQPSSVSVAPGQTATISCGGHNIGSKNVHWYQQRPGQSPVLVIYQDNKRPSGIPERFSGSNSGNTATLTISGTQAMDEADYYCQVWDNYSVLFGGGTKLTVLGGSGGSGGSGGSGGSGGSGGSQVQLVQSGAEVKKPGESLKVSCKASGYTFTSYYMHWVRQAPGQGLEWMGAIEPMYGSTSYAQKFQGRVTMTRDTSTSTVYMELSSLRSEDTAVYYCARGSAYYYDFADYWGQGTLVTVSS light: QPVLTQPPSVSVAPGKTARITCGGNNIGSKSVHWYQQKPGQAPVLVIYYDSDRPSGIPERFSGSNSGNTATLTISRVEAGDEADYYCQVWDTSSDHVLFGGGTKLTVLGQPKAAPSVTLFPPSSEELQANKATLVCLISDFYPGAVTVAWKADSSPVKAGVETTTPSKQSNNKYAASSYLSLTPEQWKSHRSYSCQVTHEGSTVEKTVAPTECS	9.3%	151 pM	10%	9.2 pM	16.2%	3510 pM	6.9%
–	–	–	–	–	–	scFv-Fc-scDb_04 (bispecific antibody) QVQLQESGPGLVKPSETLSLTCTVSGGSVSSGSYYWSWIRQPPGKGLEWIGYIYYSGSTNYNPSLKSRVTISVDTSKNQFSLKLSSVTAADTAVYYCARNPISIPAFDIWGQGTMVTVSSGGSGGSGGSGGSGGSGGSQPVLTQPPSVSVAPGKTARITCGGNNIGSKSVHWYQQKPGQAPVLVIYYDSDRPSGIPERFSGSNSGNTATLTISRVEAGDEADYYCQVWDTSSDHVLFGGGTKLTVLGGGGSDKTHTCPPCPAPEFEGGPSVFLFPPKPKDTLMISRTPEVTCVVVAVSHEDPEVKFNWYVDGVEVHNAKTKPREEQYGSTYRVVSVLTVLHQDWLNGKEYKCKVSNKALPAPIEKTISKAKGQPREPQVYTLPPSREEMTKNQVSLTCLVKGFYPSDIAVEWESNGQPENNYKTTPPVLDSDGSFFLYSKLTVDKSRWQQGNVFSCSVMHEALHNHYTQKSLSLSPGGGGGSGGGGSSYELTQPLSVSVALGQTARITCGGHNIGSKNVHWYQQKPGQAPVLVIYQDNKRPSGIPERFSGSNSGNTATLTISRAQAGDEADYYCQVWDNYNVLFGCGTKLTVLGGSGGSQVQLVQSGAEVKKPGASVKVSCKASGYTFTSYYMHWVRQAPGQCLEWMGAIEPTYGSTSYAQKFQGRVTMTRDTSTSTVYMELSSLRSEDTAVYYCARGSAYYYDFADYWGQGTLVTVSSGGSGGSGGSGGSGGSGGSSYELTQPLSVSVALGQTARITCGGHNIGSKNVHWYQQKPGQAPVLVIYQDNKRPSGIPERFSGSNSGNTATLTISRAQAGDEADYYCQVWDNYNVLFGCGTKLTVLGGSGGSQVQLVQSGAEVKKPGASVKVSCKASGYTFTSYYMHWVRQAPGQCLEWMGAIEPTYGSTSYAQKFQGRVTMTRDTSTSTVYMELSSLRSEDTAVYYCARGSAYYYDFADYWGQGTLVTVSS	22.6%	–	–	–	–	–	–
0.99 nM	4.51 nM	0.2 nM	5.54 nM	3 nM	0.16 nM	aBi-scDb-Fc_05 (bispecific antibody, Asymmetric knob/hole Fc construct with four anti-CD16A Fv domains and only one anti-EGFR Fv domain; all other places print 158 and 159) chain 1: DKTHTCPPCPAPEFEGGPSVFLFPPKPKDTLMISRTPEVTCVVVAVSHEDPEVKFNWYVDGVEVHNAKTKPREEQYNSTYRVVSVLTVLHQDWLNGKEYKCKVSNKALPAPIEKTISKAKGQPREPQVYTLPPSREEMTKNQVSLTCLVKGFYPSDIAVEWESNGQPENNYKTTPPVLDSDGSFFLTSKLTVDKSRWQQGNVFSCSVMHEALHNHYTQKSLSLSPGGGGGSGGGGSSYVLTQPSSVSVAPGQTATISCGGHNIGSKNVHWYQQRPGQSPVLVIYQDNKRPSGIPERFSGSNSGNTATLTISGTQAMDEADYYCQVWDNYSVLFGGGTKLTVLGGSGGSQVQLVQSGAEVKKPGESLKVSCKASGYTFTSYYMHWVRQAPGQGLEWMGAIEPMYGSTSYAQKFQGRVTMTRDTSTSTVYMELSSLRSEDTAVYYCARGSAYYYDFADYWGQGTLVTVSSGGSGGSGGSGGSGGSGGSSYVLTQPSSVSVAPGQTATISCGGHNIGSKNVHWYQQRPGQSPVLVIYQDNKRPSGIPERFSGSNSGNTATLTISGTQAMDEADYYCQVWDNYSVLFGGGTKLTVLGGSGGSQVQLVQSGAEVKKPGESLKVSCKASGYTFTSYYMHWVRQAPGQGLEWMGAIEPMYGSTSYAQKFQGRVTMTRDTSTSTVYMELSSLRSEDTAVYYCARGSAYYYDFADYWGQGTLVTVSSAAAGSHHHHHH chain 2: QVQLQESGPGLVKPSETLSLTCTVSGGSVSSGSYYWSWIRQPPGKGLEWIGYIYYSGSTNYNPSLKSRVTISVDTSKNQFSLKLSSVTAADTAVYYCARNPISIPAFDIWGQGTMVTVSSGGSGGSGGSGGSGGSGGSQPVLTQPPSVSVAPGKTARITCGGNNIGSKSVHWYQQKPGQAPVLVIYYDSDRPSGIPERFSGSNSGNTATLTISRVEAGDEADYYCQVWDTSSDHVLFGGGTKLTVLDKTHTCPPCPAPEFEGGPSVFLFPPKPKDTLMISRTPEVTCVVVAVSHEDPEVKFNWYVDGVEVHNAKTKPREEQYNSTYRVVSVLTVLHQDWLNGKEYKCKVSNKALPAPIEKTISKAKGQPREPQVYTLPPSREEMTKNQVSLYCLVKGFYPSDIAVEWESNGQPENNYKTTPPVLDSDGSFFLYSKLTVDKSRWQQGNVFSCSVMHEALHNHYTQKSLSLSPGGGGGSGGGGSSYVLTQPSSVSVAPGQTATISCGGHNIGSKNVHWYQQRPGQSPVLVIYQDNKRPSGIPERFSGSNSGNTATLTISGTQAMDEADYYCQVWDNYSVLFGGGTKLTVLGGSGGSQVQLVQSGAEVKKPGESLKVSCKASGYTFTSYYMHWVRQAPGQGLEWMGAIEPMYGSTSYAQKFQGRVTMTRDTSTSTVYMELSSLRSEDTAVYYCARGSAYYYDFADYWGQGTLVTVSSGGSGGSGGSGGSGGSGGSSYVLTQPSSVSVAPGQTATISCGGHNIGSKNVHWYQQRPGQSPVLVIYQDNKRPSGIPERFSGSNSGNTATLTISGTQAMDEADYYCQVWDNYSVLFGGGTKLTVLGGSGGSQVQLVQSGAEVKKPGESLKVSCKASGYTFTSYYMHWVRQAPGQGLEWMGAIEPMYGSTSYAQKFQGRVTMTRDTSTSTVYMELSSLRSEDTAVYYCARGSAYYYDFADYWGQGTLVTVSSGAAEPEA	–	39.9 pM	27.2%	5 pM	34.2%	–	27.1%
